B1: monoclonal antibody 7F3 (antibody, V domains shown)
VH: EVQLVESGGGLVKPGRSLRLSCTASGFTFGDYAMSWFRQAPGKGLEWVGFIRSKAYGGTTEYAASVKGRFTISRDDSKSIAYLQMNSLKTEDTAVYYCTRDRYARYDILTGLSPAGADYFYYAMDVWGQGTTVTVSS
VL: EIVLTQSPATLSLSPGERATLSCRASQSVSSYLAWYQQKPGQAPRLLIYDASNRATGIPARFSGSGSGTDFTLTISSLEPEDFAVYYCQQRSNWPQYTFGQGTKLEIK
B2: monoclonal antibody 4L12 (antibody, V domains shown)
VH: EVQLVESGGGLVQPGGSLRLSCAASGITVSSNYMNWVRQAPGRGLEWVSLLYSGGSTYYADSVKGRFTISRDNSKNTLYLQMNSLRAEDTAVYYCARDLITYGMDVWGQGTTVTVSS
VL: AIQLTQSPSSLSASVGDRVTITCRASQGISSYLAWYQQKPGKAPKLLIYAASTLQSGVPSRFSGSGSGTDFTLTISSLQPEDFATYYCQQLNSYPPLTFGGGTKVEIK

Target: SARS-CoV-2 RBD protein (SARS-CoV-2 (Wuhan-Hu-1, NC_045512), UniProt P0DTC2)
Experiment: BLI

Row | Binder | Kd [nM]
1 | B1 | 0.69 ± 0.03
2 | B2 | 1.49 ± 0.06
